Patent publication US20190153089A1 (NUMAB INNOVATION, published 2019)
Changes are numbered by the printed parent chain.

B1: humanized scFv 17-21-A01-sc01 (CDR graft) (scFv)
scFv: MDIQMTQSPSSLSASVGDRVTITCQASESIGNALAWYQQKPGKAPKLLIYSASTLASGVPSRFSGSGSGTDFTLTISSLQPEDFATYYCQSYYYSSSGSYVAFGGGTKLTVLGGGGGSGGGGSGGGGSGGGGSEVQLVESGGGLVQPGGSLRLSCAASGIDFNKYYFMCWVRQAPGKGLEWIGCINTGSGSTYYATWAKGRFTISRDNSKNTVYLQMNSLRAEDTAVYYCARASGSSSVVYIGVYFSLWGQGTLVTVSS
B2: humanized scFv 17-21-A01-sc03 (CDR graft with disulfide bridge, CDR/DS) (scFv)
scFv: B1 scFv with G105C, G178C
notes: A disulfide bridge was introduced between residues VL141-VH51; also called 17-21-A01-sc03 (CDR/DS)
B3: recombinant human TNFβ (Peprotech, Cat. No. 300-01B) (ligand, UniProt P01374 35-205, looked up)
chain: LPGVGLTPSAAQTARQHPKMHLAHSTLKPAAHLIGDPSKQNSLLWRANTDRAFLQDGFSLSNNSLLVPTSGIYFVYSQVVFSGKAYSPKATSSPLYLAHEVQLFSSQYPFHVPLLSSQKMVYPGLQEPWLHSMYHGAAFQLTQGDQLSTHTDGIPHLVLSPSTVFFGAFAL

Key:
[1] = target: T1, recombinant Cynomolgus monkey TNFα (Sino Biological, Cat. No. 90018-CNAE) (Cynomolgus monkey (Macaca fascicularis), UniProt P79337 77-233); test: SPR
T1 construct: also called Cyno TNFα; Cynomolgus TNFα
T1 sequence (P79337 77-233 limits assumed): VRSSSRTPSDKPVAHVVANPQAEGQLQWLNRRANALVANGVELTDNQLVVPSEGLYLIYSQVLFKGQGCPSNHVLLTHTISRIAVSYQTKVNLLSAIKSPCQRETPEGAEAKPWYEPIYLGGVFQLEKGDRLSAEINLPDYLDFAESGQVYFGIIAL
Experimental: (§1) In a second step, for the best performing scFvs, Single Injection Cycle Kinetics (SiCK) were measured from a single injection cycle by simultaneously injecting six analyte samples at different concentrations into each of the eight parallel channels in the MASS-1 system. […] The apparent dissociation (kd) and association (kₐ) rate constants and the apparent dissociation equilibrium constant (KD) were calculated with the MASS-1 analysis software (Analyzer, Sierra Sensors) using one-to-one Langmuir binding model and quality of the fits was monitored based on Chi², which is a measure for the quality of the curve fitting. The smaller the value for the Chi² the more accurate is the fitting to the one-to-one Langmuir binding model. For affinity screenings, results were deemed valid if the Chi² was below 10 for the concentration analyzed. In cases where several scFv concentrations were analyzed, results were deemed valid if the average Chi² over all the concentrations tested was below 10.

[2] = target: T2, Rhesus monkey TNFα (R&D Systems, Cat. No. 1070-RM-025/CF) (Rhesus monkey (Macaca mulatta), UniProt P48094 77-233); test: SPR
T2 construct: also called Rhesus TNFα; Macaca mulatta TNFα
T2 sequence (P48094 77-233 limits assumed): as the sequence (P79337 77-233 limits assumed) above, with V37L counted along it
Experimental: as §1

[3] = target: T3, recombinant human TNFα (Peprotech, Cat. No. 300-01) (human, UniProt P01375 77-233, biotinylated in the inhibition and competition ELISAs; unlabelled elsewhere); test: cell-based or functional assay
T3 sequence (P01375 77-233 limits assumed): as the sequence (P79337 77-233 limits assumed) above, with V37L, T44R, N72T, L138R counted along it

[4] = target: T1, recombinant Cynomolgus monkey TNFα …; test: cell-based or functional assay
[5] = target: T2, Rhesus monkey TNFα (R&D Systems, Cat. …); test: cell-based or functional assay
[6] = target: T3, recombinant human TNFα (Peprotech, Cat. …); test: SPR (MASS-1), TNFα immobilized, scFv 45-1.4 nM
Experimental: as §1

[7] = target: T1, recombinant Cynomolgus monkey TNFα …; test: SPR (MASS-1), TNFα immobilized, scFv 45-1.4 nM
Experimental: as §1

[8] = target: T2, Rhesus monkey TNFα (R&D Systems, Cat. …); test: SPR (MASS-1), TNFα immobilized, scFv 45-1.4 nM
Experimental: as §1

[9] = target: B3; test: competition ELISA: unlabeled TNFβ against biotinylated TNFα on coated scFv
Experimental: (§2) For this purpose, the scFvs were coated on a 96-well Maxisorp ELISA plate at a concentration of […]. […] To control precision of the response, the dose-response curves were analyzed in duplicate.

[10] = target: T3, recombinant human TNFα (Peprotech, Cat. …); test: inhibition ELISA, biotinylated TNFα (960 pM) preincubated with scFv, binding to coated TNFRI-Fc
Description: (§3) For the first inhibition ELISA, the extracellular domain of TNFRI fused to the Fc region of human IgG (R&D Systems, Cat. No. 372-RI) was coated on a 96-well Maxisorp ELISA at a concentration of […]. For the second inhibition ELISA, the extracellular domain of TNFRII fused to the Fc region of human IgG (R&D Systems, Cat. No. 726-R2) was coated at a concentration of […]. All subsequent steps were identical for both assays.

[11] = target: T3, recombinant human TNFα (Peprotech, Cat. …); test: inhibition ELISA, biotinylated TNFα (960 pM) preincubated with scFv, binding to coated TNFRII-Fc
Description: as §3

[12] = target: B1; test: competition ELISA: unlabeled TNFβ or TNFα against biotinylated TNFα on coated scFv
Experimental: as §2

[13] = target: B2; test: as above
Experimental: as §2

[14] = target: B1; test: competition ELISA: unlabeled TNFβ against biotinylated TNFα on coated scFv; scFv 17-21-A01-sc01
Experimental: as §2

[15] = target: B2; test: competition ELISA: unlabeled TNFβ against biotinylated TNFα on coated scFv; scFv 17-21-A01-sc03
Experimental: as §2

| Binder | Potency, rel. IC50 in L929 assay (IC50 infliximab / IC50 scFv, ng/mL) [3] [fold] | Potency, rel. IC90 in L929 assay (IC90 infliximab / IC90 scFv, ng/mL) [3] [fold] | Species-specificity IC50, L929 assay with human TNFα [3] [µg/mL] | Species-specificity IC50, L929 assay with Cynomolgus TNFα [4] [µg/mL] | Species-specificity IC50, L929 assay with Rhesus TNFα [5] [µg/mL] | Kd [6] [nM] | koff [6] [s⁻¹] | kon [6] [M⁻¹ s⁻¹] | binding result [9] | IC50 [10] [µg/mL] | rel. IC50 (IC50 infliximab / IC50 scFv, ng/mL) [10] [fold] | rel. IC90 (IC90 infliximab / IC90 scFv, ng/mL) [10] [fold] | IC50 [11] [µg/mL] | rel. IC50 (IC50 infliximab / IC50 scFv, ng/mL) [11] [fold] | rel. IC90 (IC90 infliximab / IC90 scFv, ng/mL) [11] [fold] | other results |
| --- | --- | --- | --- | --- | --- | --- | --- | --- | --- | --- | --- | --- | --- | --- | --- | --- |
| B1 | 9.2 | 12.2 | 0.0014 | 0.193 | 0.111 | 0.21 | 0.00014 | 660000 | no binding (tested: 1250 µg/mL) | 0.0316 | 2.9 | 2 | 0.0541 | 2.2 | 0.8 | fold difference in affinity against human TNFα [1]: ~5 fold; fold difference in affinity against human TNFα [2]: ~5 fold; Kd [7]: 2.4 nM; koff [7]: 0.0016 s⁻¹; kon [7]: 650000 M⁻¹ s⁻¹; Kd [8]: 2.5 nM; koff [8]: 0.0019 s⁻¹; kon [8]: 760000 M⁻¹ s⁻¹ |
| B2 | 6.5 | 6.4 | 0.0012 | 0.0506 | 0.0542 | 0.27 | 0.00011 | 400000 | no binding (tested: 1250 µg/mL) | 0.0502 | 1.8 | 1.8 | 0.0467 | 2.6 | 0.8 |  |
| B3 |  |  |  |  |  |  |  |  |  |  |  |  |  |  |  | Target selectivity, rel. IC50 of TNFβ vs TNFα [12]: > 10000 fold; Target selectivity, rel. IC50 of TNFβ vs TNFα [13]: > 10000 fold; IC50 [14]: > 1250 µg/mL; IC50 [15]: > 1250 µg/mL |
